Results published in US20210388087A1 (Chugai, published 2021).

B1: GLS3000 S27eT (antibody, name in Kabat numbering, V domains shown)
VH: QVQLVESGGGVVQPGRSLRLSCAASGFTFSNAWMHWVRQAPGKGLEWVAQIKAKSNNYATYYAESVKGRFTISRDDSKNSLYLQMNSLKTEDTAVYYCRYVHYGAYYGVDAWGQGTTVTVSS
VL: DIVMTQSPLSLPVTPGEPASISCRSSQSLVHTNRNTYLHWYQQKPGQAPRLLIYKVSNRFSGVPDRFSGSGSGTDFTLKISRVEAEDVGVYYCGQGTQVPYTFGQGTKLEIK
notes: one-arm IgG as m2
B2: GLS3000 S56D (antibody, name in Kabat numbering, V domains shown)
VH: QVQLVESGGGVVQPGRSLRLSCAASGFTFSNAWMHWVRQAPGKGLEWVAQIKAKSNNYATYYAESVKGRFTISRDDSKNSLYLQMNSLKTEDTAVYYCRYVHYGAYYGVDAWGQGTTVTVSS
VL: DIVMTQSPLSLPVTPGEPASISCRSSQSLVHSNRNTYLHWYQQKPGQAPRLLIYKVSNRFDGVPDRFSGSGSGTDFTLKISRVEAEDVGVYYCGQGTQVPYTFGQGTKLEIK
notes: one-arm IgG as m2
B3: GLS3000 S56G (antibody, name in Kabat numbering, V domains shown)
VH: QVQLVESGGGVVQPGRSLRLSCAASGFTFSNAWMHWVRQAPGKGLEWVAQIKAKSNNYATYYAESVKGRFTISRDDSKNSLYLQMNSLKTEDTAVYYCRYVHYGAYYGVDAWGQGTTVTVSS
VL: DIVMTQSPLSLPVTPGEPASISCRSSQSLVHSNRNTYLHWYQQKPGQAPRLLIYKVSNRFGGVPDRFSGSGSGTDFTLKISRVEAEDVGVYYCGQGTQVPYTFGQGTKLEIK
notes: one-arm IgG as m2
B4: GLS3000 S56L (antibody, name in Kabat numbering, V domains shown)
VH: QVQLVESGGGVVQPGRSLRLSCAASGFTFSNAWMHWVRQAPGKGLEWVAQIKAKSNNYATYYAESVKGRFTISRDDSKNSLYLQMNSLKTEDTAVYYCRYVHYGAYYGVDAWGQGTTVTVSS
VL: DIVMTQSPLSLPVTPGEPASISCRSSQSLVHSNRNTYLHWYQQKPGQAPRLLIYKVSNRFLGVPDRFSGSGSGTDFTLKISRVEAEDVGVYYCGQGTQVPYTFGQGTKLEIK
notes: one-arm IgG as m2
B5: GLS3000 S56I (antibody, name in Kabat numbering, V domains shown)
VH: QVQLVESGGGVVQPGRSLRLSCAASGFTFSNAWMHWVRQAPGKGLEWVAQIKAKSNNYATYYAESVKGRFTISRDDSKNSLYLQMNSLKTEDTAVYYCRYVHYGAYYGVDAWGQGTTVTVSS
VL: DIVMTQSPLSLPVTPGEPASISCRSSQSLVHSNRNTYLHWYQQKPGQAPRLLIYKVSNRFIGVPDRFSGSGSGTDFTLKISRVEAEDVGVYYCGQGTQVPYTFGQGTKLEIK
notes: one-arm IgG as m2
B6: GLS3000 S56E (antibody, name in Kabat numbering, V domains shown)
VH: QVQLVESGGGVVQPGRSLRLSCAASGFTFSNAWMHWVRQAPGKGLEWVAQIKAKSNNYATYYAESVKGRFTISRDDSKNSLYLQMNSLKTEDTAVYYCRYVHYGAYYGVDAWGQGTTVTVSS
VL: DIVMTQSPLSLPVTPGEPASISCRSSQSLVHSNRNTYLHWYQQKPGQAPRLLIYKVSNRFEGVPDRFSGSGSGTDFTLKISRVEAEDVGVYYCGQGTQVPYTFGQGTKLEIK
notes: one-arm IgG as m2
B7: GLS3000 S56A (antibody, name in Kabat numbering, V domains shown)
VH: QVQLVESGGGVVQPGRSLRLSCAASGFTFSNAWMHWVRQAPGKGLEWVAQIKAKSNNYATYYAESVKGRFTISRDDSKNSLYLQMNSLKTEDTAVYYCRYVHYGAYYGVDAWGQGTTVTVSS
VL: DIVMTQSPLSLPVTPGEPASISCRSSQSLVHSNRNTYLHWYQQKPGQAPRLLIYKVSNRFAGVPDRFSGSGSGTDFTLKISRVEAEDVGVYYCGQGTQVPYTFGQGTKLEIK
notes: one-arm IgG as m2
B8: GLS3000 S56M (antibody, name in Kabat numbering, V domains shown)
VH: QVQLVESGGGVVQPGRSLRLSCAASGFTFSNAWMHWVRQAPGKGLEWVAQIKAKSNNYATYYAESVKGRFTISRDDSKNSLYLQMNSLKTEDTAVYYCRYVHYGAYYGVDAWGQGTTVTVSS
VL: DIVMTQSPLSLPVTPGEPASISCRSSQSLVHSNRNTYLHWYQQKPGQAPRLLIYKVSNRFMGVPDRFSGSGSGTDFTLKISRVEAEDVGVYYCGQGTQVPYTFGQGTKLEIK
notes: one-arm IgG as m2
B9: GLS3000 S52Y (antibody, name in Kabat numbering, V domains shown)
VH: QVQLVESGGGVVQPGRSLRLSCAASGFTFSNAWMHWVRQAPGKGLEWVAQIKAKSNNYATYYAESVKGRFTISRDDSKNSLYLQMNSLKTEDTAVYYCRYVHYGAYYGVDAWGQGTTVTVSS
VL: DIVMTQSPLSLPVTPGEPASISCRSSQSLVHSNRNTYLHWYQQKPGQAPRLLIYKVYNRFSGVPDRFSGSGSGTDFTLKISRVEAEDVGVYYCGQGTQVPYTFGQGTKLEIK
notes: one-arm IgG as m2
B10: GLS3000 S27eW (antibody, name in Kabat numbering, V domains shown)
VH: QVQLVESGGGVVQPGRSLRLSCAASGFTFSNAWMHWVRQAPGKGLEWVAQIKAKSNNYATYYAESVKGRFTISRDDSKNSLYLQMNSLKTEDTAVYYCRYVHYGAYYGVDAWGQGTTVTVSS
VL: DIVMTQSPLSLPVTPGEPASISCRSSQSLVHWNRNTYLHWYQQKPGQAPRLLIYKVSNRFSGVPDRFSGSGSGTDFTLKISRVEAEDVGVYYCGQGTQVPYTFGQGTKLEIK
notes: one-arm IgG as m2
B11: GLS3000 S52Q (antibody, name in Kabat numbering, V domains shown)
VH: QVQLVESGGGVVQPGRSLRLSCAASGFTFSNAWMHWVRQAPGKGLEWVAQIKAKSNNYATYYAESVKGRFTISRDDSKNSLYLQMNSLKTEDTAVYYCRYVHYGAYYGVDAWGQGTTVTVSS
VL: DIVMTQSPLSLPVTPGEPASISCRSSQSLVHSNRNTYLHWYQQKPGQAPRLLIYKVQNRFSGVPDRFSGSGSGTDFTLKISRVEAEDVGVYYCGQGTQVPYTFGQGTKLEIK
notes: one-arm IgG as m2
B12: GLS3000 S52D (antibody, name in Kabat numbering, V domains shown)
VH: QVQLVESGGGVVQPGRSLRLSCAASGFTFSNAWMHWVRQAPGKGLEWVAQIKAKSNNYATYYAESVKGRFTISRDDSKNSLYLQMNSLKTEDTAVYYCRYVHYGAYYGVDAWGQGTTVTVSS
VL: DIVMTQSPLSLPVTPGEPASISCRSSQSLVHSNRNTYLHWYQQKPGQAPRLLIYKVDNRFSGVPDRFSGSGSGTDFTLKISRVEAEDVGVYYCGQGTQVPYTFGQGTKLEIK
notes: one-arm IgG as m2
B13: GLS3000 S27eY (antibody, name in Kabat numbering, V domains shown)
VH: QVQLVESGGGVVQPGRSLRLSCAASGFTFSNAWMHWVRQAPGKGLEWVAQIKAKSNNYATYYAESVKGRFTISRDDSKNSLYLQMNSLKTEDTAVYYCRYVHYGAYYGVDAWGQGTTVTVSS
VL: DIVMTQSPLSLPVTPGEPASISCRSSQSLVHYNRNTYLHWYQQKPGQAPRLLIYKVSNRFSGVPDRFSGSGSGTDFTLKISRVEAEDVGVYYCGQGTQVPYTFGQGTKLEIK
notes: one-arm IgG as m2
B14: GLS3000 S56K (antibody, name in Kabat numbering, V domains shown)
VH: QVQLVESGGGVVQPGRSLRLSCAASGFTFSNAWMHWVRQAPGKGLEWVAQIKAKSNNYATYYAESVKGRFTISRDDSKNSLYLQMNSLKTEDTAVYYCRYVHYGAYYGVDAWGQGTTVTVSS
VL: DIVMTQSPLSLPVTPGEPASISCRSSQSLVHSNRNTYLHWYQQKPGQAPRLLIYKVSNRFKGVPDRFSGSGSGTDFTLKISRVEAEDVGVYYCGQGTQVPYTFGQGTKLEIK
notes: one-arm IgG as m2
B15: GLS3000 S56F (antibody, name in Kabat numbering, V domains shown)
VH: QVQLVESGGGVVQPGRSLRLSCAASGFTFSNAWMHWVRQAPGKGLEWVAQIKAKSNNYATYYAESVKGRFTISRDDSKNSLYLQMNSLKTEDTAVYYCRYVHYGAYYGVDAWGQGTTVTVSS
VL: DIVMTQSPLSLPVTPGEPASISCRSSQSLVHSNRNTYLHWYQQKPGQAPRLLIYKVSNRFFGVPDRFSGSGSGTDFTLKISRVEAEDVGVYYCGQGTQVPYTFGQGTKLEIK
notes: one-arm IgG as m2
B16: GLS3000 S27eV (antibody, name in Kabat numbering, V domains shown)
VH: QVQLVESGGGVVQPGRSLRLSCAASGFTFSNAWMHWVRQAPGKGLEWVAQIKAKSNNYATYYAESVKGRFTISRDDSKNSLYLQMNSLKTEDTAVYYCRYVHYGAYYGVDAWGQGTTVTVSS
VL: DIVMTQSPLSLPVTPGEPASISCRSSQSLVHVNRNTYLHWYQQKPGQAPRLLIYKVSNRFSGVPDRFSGSGSGTDFTLKISRVEAEDVGVYYCGQGTQVPYTFGQGTKLEIK
notes: one-arm IgG as m2
B17: GLS3000 S56N (antibody, name in Kabat numbering, V domains shown)
VH: QVQLVESGGGVVQPGRSLRLSCAASGFTFSNAWMHWVRQAPGKGLEWVAQIKAKSNNYATYYAESVKGRFTISRDDSKNSLYLQMNSLKTEDTAVYYCRYVHYGAYYGVDAWGQGTTVTVSS
VL: DIVMTQSPLSLPVTPGEPASISCRSSQSLVHSNRNTYLHWYQQKPGQAPRLLIYKVSNRFNGVPDRFSGSGSGTDFTLKISRVEAEDVGVYYCGQGTQVPYTFGQGTKLEIK
notes: one-arm IgG as m2
B18: GLS3000 S56P (antibody, name in Kabat numbering, V domains shown)
VH: QVQLVESGGGVVQPGRSLRLSCAASGFTFSNAWMHWVRQAPGKGLEWVAQIKAKSNNYATYYAESVKGRFTISRDDSKNSLYLQMNSLKTEDTAVYYCRYVHYGAYYGVDAWGQGTTVTVSS
VL: DIVMTQSPLSLPVTPGEPASISCRSSQSLVHSNRNTYLHWYQQKPGQAPRLLIYKVSNRFPGVPDRFSGSGSGTDFTLKISRVEAEDVGVYYCGQGTQVPYTFGQGTKLEIK
notes: one-arm IgG as m2
B19: GLS3000 S52P (antibody, name in Kabat numbering, V domains shown)
VH: QVQLVESGGGVVQPGRSLRLSCAASGFTFSNAWMHWVRQAPGKGLEWVAQIKAKSNNYATYYAESVKGRFTISRDDSKNSLYLQMNSLKTEDTAVYYCRYVHYGAYYGVDAWGQGTTVTVSS
VL: DIVMTQSPLSLPVTPGEPASISCRSSQSLVHSNRNTYLHWYQQKPGQAPRLLIYKVPNRFSGVPDRFSGSGSGTDFTLKISRVEAEDVGVYYCGQGTQVPYTFGQGTKLEIK
notes: one-arm IgG as m2
B20: GLS3000 S52A (antibody, name in Kabat numbering, V domains shown)
VH: QVQLVESGGGVVQPGRSLRLSCAASGFTFSNAWMHWVRQAPGKGLEWVAQIKAKSNNYATYYAESVKGRFTISRDDSKNSLYLQMNSLKTEDTAVYYCRYVHYGAYYGVDAWGQGTTVTVSS
VL: DIVMTQSPLSLPVTPGEPASISCRSSQSLVHSNRNTYLHWYQQKPGQAPRLLIYKVANRFSGVPDRFSGSGSGTDFTLKISRVEAEDVGVYYCGQGTQVPYTFGQGTKLEIK
notes: one-arm IgG as m2
B21: GLS3000 S56H (antibody, name in Kabat numbering, V domains shown)
VH: QVQLVESGGGVVQPGRSLRLSCAASGFTFSNAWMHWVRQAPGKGLEWVAQIKAKSNNYATYYAESVKGRFTISRDDSKNSLYLQMNSLKTEDTAVYYCRYVHYGAYYGVDAWGQGTTVTVSS
VL: DIVMTQSPLSLPVTPGEPASISCRSSQSLVHSNRNTYLHWYQQKPGQAPRLLIYKVSNRFHGVPDRFSGSGSGTDFTLKISRVEAEDVGVYYCGQGTQVPYTFGQGTKLEIK
notes: one-arm IgG as m2

Biological target: T1, CD3 epsilon homodimer protein (UniProt P07766 23-126)
T1 construct: also called CD3 (CD3 epsilon)
T1 sequence (P07766 23-126): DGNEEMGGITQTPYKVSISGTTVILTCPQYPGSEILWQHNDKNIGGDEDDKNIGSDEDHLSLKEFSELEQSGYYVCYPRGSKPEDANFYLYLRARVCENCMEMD
Assay: SPR Biacore T200, CD3e homodimer on chip, vs unaltered GLS3000 antibody

| Binder | ratio of amounts bound (Z=Y/X) |
| --- | --- |
| B1 | 0.97 |
| B2 | 0.77 |
| B3 | 0.92 |
| B4 | 1.02 |
| B5 | 0.99 |
| B6 | 0.71 |
| B7 | 1.16 |
| B8 | 1.05 |
| B9 | 1.12 |
| B10 | 1.55 |
| B11 | 1.05 |
| B12 | 0.63 |
| B13 | 1.2 |
| B14 | 1.46 |
| B15 | 1.32 |
| B16 | 1.08 |
| B17 | 0.92 |
| B18 | 0.95 |
| B19 | 0.33 |
| B20 | 0.93 |
| B21 | 1.05 |
